Patent publication US20230034768A1 (BIOSION, published 2023)

T1: human RANKL-his protein (prepared in-house with SEQ ID NO: 43) (human, UniProt O14788 136-317)
T1 construct: also called recombinant human RANKL-his
T1 chain: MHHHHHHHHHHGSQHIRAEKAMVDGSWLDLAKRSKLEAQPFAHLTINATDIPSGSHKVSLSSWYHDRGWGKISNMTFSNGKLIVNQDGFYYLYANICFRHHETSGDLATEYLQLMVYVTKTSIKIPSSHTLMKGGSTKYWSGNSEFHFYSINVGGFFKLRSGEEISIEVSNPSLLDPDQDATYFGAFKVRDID


Assays:
[1] = target: T1, human RANKL-his protein (prepared …); experiment: Octet BLI, antibody captured, human RANKL-his in solution
Experimental: (§1) Briefly, AHC/AMC biosensors (anti-human/anti-mouse IgG Fc capture, ForteBio) were presoaked with 10 mM glycine (pH 1.5) for 3 seconds, and then dipped in a well with running buffer (0.5% w/v BSA in PBST) for 3 seconds, the soaking and dipping steps were repeated for three times. […] A new baseline was run for 180 seconds in another well with HBS-EP⁺. […] Finally, sensors were presoaked with 10 mM glycine (pH 1.5) for 3 seconds, and then dipped in a well with running buffer for 3 seconds, the soaking and dipping steps repeated for three times. The association and dissociation curves were fit to a 1:1 Langmuir binding model using Octet evaluation software.
(§2) Cell supernatants were harvested after six days in shaking flasks, spun down to pellet cells, and then chimeric antibodies were purified from cell supernatants as described above. The purified antibodies were tested in the capture ELISA, competitive ELISA assay and Octet affinity test following the protocols in the foregoing Examples.

[2] = target: T2, biotin-labeled human RANKL-Fc protein (prepared in house, SEQ ID NO.: 40) (human, biotin-labeled (sites not given)); experiment: capture ELISA: captured antibody, biotin-labeled human RANKL-Fc, OD(450-630)
T2 construct: also called RANKL-Fc-biotin
Experimental: Plates were washed once with wash buffer (PBS+0.05% v/v Tween-20, PBST) and then blocked with 200 μl/well blocking buffer (5% w/v non-fatty milk in PBST) for 2 hours at 37° C. […] After a final wash, plates were incubated with 100 μl/well ELISA substrate TMB (Innoreagents, Cat #TMB-S-002) at room temperature. The reaction was stopped in 3-10 minutes with 50 μl/well 1M H₂SO₄, and the absorbance of each well was read on a microplate reader using dual wavelengths mode with 450 nm for TMB and 630 nm as the reference wavelength. The OD (450-630) values were plotted against antibody concentration. Data were analyzed using Graphpad Prism software and EC₅₀ values were reported.
as §2

[3] = target: T2, biotin-labeled human RANKL-Fc protein …; experiment: competitive ELISA: antibody blocks biotin-labeled human RANKL-Fc binding to coated human RANK-Fc
[4] = target: T2, biotin-labeled human RANKL-Fc protein …; experiment: competitive ELISA: antibody blocks biotin-labeled human RANKL-Fc binding to coated benchmark denosumab
[5] = target: T1, human RANKL-his protein (prepared …); experiment: Octet BLI, antibody from cell supernatant captured, human RANKL-his in solution
Experimental: as §1
The chimeric antibody when tested was in HBS-EP⁺ at 5 μg/ml concentration.

Kd [1] | EC50 [2] | IC50 [3] | IC50 [4] | Kd [5] | koff [5] | kon [5] | Binder
1.62 nM | 2 nM | 0.905 nM | 4.4 nM | – | – | – | Chimeric B1A8 (antibody, human IgG2, kappa, V domains shown, Mouse variable regions on human IgG2 / kappa; also called chimeric antibody B1A8) VH: EVQLVESGGDLVKPGGSLKLSCAASGFTFSRYGMSWVRQTPDKRLEWVASISSGGTYTSYPDSVQGRFTITRDSAKNTLYLQMSSLKSEDTAMYYCARRNFITSATDCYFDVWGAGTTVTVSS VL: DTVLTQSPATLSVTPGASVSLSCRASQSISNNLHWYQQKSHESPRLLIIYASQSISGIPSRFSGSGSGTDFTLSINSVETEDFGVYFCQQSNSWPFTFGGGTKLEIKR
2.65 nM | 3.17 nM | 3.17 nM | 16.8 nM | – | – | – | Chimeric B3D8 (antibody, human IgG2, kappa, V domains shown, Mouse variable regions on human IgG2 / kappa; also called chimeric antibody B3D8) VH: EVQLVESGGDLVKSGGSLKLSCAASGFTFSRYGMSWVRQTPDKRLEWVASISSGGTYTSYPDSVKGRFTITRDSAKNTLYLQMSSLKSEDTAMYYCARRNFITSATDCYFDVWGAGTTVTVSS VL: DTVLTQSPATLSVTPGASVSLSCRASQSISNNLHWYQQKSHESPRLLIIYASQSISGIPSRFSGSGSGTDFTLSINSVETEDFGVYFCQQSNSWPFTFGGGTKLEIKR
– | – | – | – | < 0.001 nM | < 1e-07 s⁻¹ | 106000 M⁻¹ s⁻¹ | humanized antibody huD1A1-V3 (antibody, human IgG4 S228P, kappa, V domains shown, Human IgG4 / kappa) VH: EVQLVESGGGLVKPGGSLRLSCAASGFTFRNYAMSWVRQAPGKGLEWVAGISSGGTYTYYPDTVKGRFTISRDNAKNSLYLQMNSLRAEDTAVYYCARRDYGDVYEWYFDVWGKGTTVTVSS VL: DIQMTQSPSSLSASVGDRVTITCKASQDVRTSIAWYQQKPGKAPKLLIYSASYRYTGVPSRFSGSGSGTDFTFTISSLQPEDIATYYCQQHYSSPWTFGGGTKVEIKR
– | – | – | – | < 0.001 nM | < 1e-07 s⁻¹ | 124000 M⁻¹ s⁻¹ | humanized antibody huD1A1-V1 (antibody, human IgG4 S228P, kappa, V domains shown, Human IgG4 / kappa) VH: EVQLVESGGGLVKPGGSLRLSCAASGFTFRNYAMSWVRQAPGKGLEWVAGISSGGTYTYYPDTVKGRFTISRDNARNSLYLQMNSLRAEDTAVYYCARRDYGDVYEWYFDVWGTGTTVTVSS VL: DIQMTQSPSSLSASVGDRVTITCKASQDVRTSIAWYQQKPGKAPKLLIYSASYRYTGVPSRFSGSGSGTDFTFTISSLQPEDIATYYCQQHYSSPWTFGGGTKVEIKR
– | – | – | – | < 0.001 nM | < 1e-07 s⁻¹ | 115000 M⁻¹ s⁻¹ | humanized antibody huD1A1-V6 (antibody, human IgG4 S228P, kappa, V domains shown, Human IgG4 / kappa) VH: EVQLVESGGGLVKPGGSLRLSCAASGFTFRNYAMSWVRQAPGKGLEWVAGISSGGTYTYYPDTVKGRFTISRDNAKNSLYLQMNSLRAEDTAVYYCARRDYGDVYEWYFDVWGKGTTVTVSS VL: DIQMTQSPSSLSASVGDRVTITCKASQDVRTSIAWYQQKPGKSPKLLIYSASYRYTGVPSRFSGSGSGTDFTFTISSLQPEDLATYYCQQHYSSPWTFGGGTKVEIKR
– | – | – | – | < 0.001 nM | < 1e-07 s⁻¹ | 101000 M⁻¹ s⁻¹ | humanized antibody huD1A1-V4 (antibody, human IgG4 S228P, kappa, V domains shown, Human IgG4 / kappa) VH: EVQLVESGGGLVKPGGSLRLSCAASGFTFRNYAMSWVRQAPGKGLEWVAGISSGGTYTYYPDTVKGRFTISRDNARNSLYLQMNSLRAEDTAVYYCARRDYGDVYEWYFDVWGTGTTVTVSS VL: DIQMTQSPSSLSASVGDRVTITCKASQDVRTSIAWYQQKPGKSPKLLIYSASYRYTGVPSRFSGSGSGTDFTFTISSLQPEDLATYYCQQHYSSPWTFGGGTKVEIKR
0.612 nM | 0.183 nM | 0.0505 nM | 0.258 nM | – | – | – | Chimeric D1E3 (antibody, human IgG2, kappa, V domains shown, Mouse variable regions on human IgG2 / kappa; also called chimeric antibody D1E3) VH: EVQLVESGGGLVKPGGSLKLSCAASGFTFSRYAMSWVRQTPEKRLEWVAGISSGGTYTYYPDTVKGRFTISRDSAKNILYLQMGSLRSEDSAMYHCARRDYGDVYEWYFDVWGTGTTVTVSS VL: DIVMTQSHKFMSASVGDRVSITCKASQGVRIAVAWYQQKPGQSPKLLIYSASYRYTGVPDRFTGSGSGTDFTFTISSVQAEDLAVYYCQQHHSSPWTFGGGTKLEIKR
